Test results as given in patent publication US10428140B2, “Anti-EphA4 antibody” (EISAI R&D MANAGEMENT CO., LTD., priority 2015, dated 2019).
Residue numbers refer to the chain shown, from its start. One block for each molecule: values may come before it.

Assays:
Assay in all cases: Selectivity ELISA of humanized antibodies for human Eph receptor
Assay type in all cases: binding
Conditions in all cases: coated protein 1 nM
[1] = target: T1, human EphA6 (Homo sapiens, UniProt Q9UF33)
T1 construct: a protein of the extracellular region of each human Eph receptor fused with the SEAP protein and the His tag; made in house; host or cells: Expi293F cells (culture supernatant)
T1 sequence (Q9UF33 23-550 limits assumed): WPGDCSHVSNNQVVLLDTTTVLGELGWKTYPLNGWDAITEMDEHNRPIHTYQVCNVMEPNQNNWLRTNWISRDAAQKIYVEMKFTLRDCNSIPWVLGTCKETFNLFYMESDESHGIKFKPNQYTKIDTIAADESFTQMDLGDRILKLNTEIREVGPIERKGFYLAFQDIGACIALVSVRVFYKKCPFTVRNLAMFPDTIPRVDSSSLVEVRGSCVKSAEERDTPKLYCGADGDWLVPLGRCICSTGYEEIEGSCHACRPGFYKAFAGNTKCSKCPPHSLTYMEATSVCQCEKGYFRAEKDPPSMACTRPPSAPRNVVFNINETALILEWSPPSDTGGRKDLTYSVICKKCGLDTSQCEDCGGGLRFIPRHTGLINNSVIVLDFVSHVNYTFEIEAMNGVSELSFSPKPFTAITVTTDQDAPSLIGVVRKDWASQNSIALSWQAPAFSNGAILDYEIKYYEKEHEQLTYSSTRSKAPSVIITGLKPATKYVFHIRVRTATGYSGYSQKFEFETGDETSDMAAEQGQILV
Method in brief: (§1)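 Capture ELISA: anti-6-His coat, 1% BlockAce block, Eph ECD-SEAP-His (1 nM final, Expi293F supernatant) 1 h RT, humanized Ab 1 h RT, HRP anti-IgG 1 h RT, TMB, H2SO4 stop, A450.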

[2] = target: T2, human EphA2 (Homo sapiens, UniProt P29317)
T2 construct: a protein of the extracellular region of each human Eph receptor fused with the SEAP protein and the His tag; made in house; host or cells: Expi293F cells (culture supernatant)
T2 sequence (P29317 24-537 limits assumed): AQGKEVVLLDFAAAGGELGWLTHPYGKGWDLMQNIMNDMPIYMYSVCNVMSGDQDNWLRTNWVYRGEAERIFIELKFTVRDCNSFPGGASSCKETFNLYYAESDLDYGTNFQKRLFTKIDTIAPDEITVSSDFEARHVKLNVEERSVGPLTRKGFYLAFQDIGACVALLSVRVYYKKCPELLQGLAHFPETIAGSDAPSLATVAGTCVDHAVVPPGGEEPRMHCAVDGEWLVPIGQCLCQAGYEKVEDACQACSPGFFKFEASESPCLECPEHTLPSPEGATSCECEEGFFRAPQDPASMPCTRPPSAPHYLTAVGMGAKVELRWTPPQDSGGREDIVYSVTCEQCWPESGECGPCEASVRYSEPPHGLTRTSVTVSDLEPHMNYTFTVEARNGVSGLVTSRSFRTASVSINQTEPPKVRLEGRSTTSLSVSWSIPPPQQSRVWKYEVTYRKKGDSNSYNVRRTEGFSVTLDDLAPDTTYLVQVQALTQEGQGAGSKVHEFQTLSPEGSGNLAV
Method in brief: as §1

[3] = target: SEAP-His (Homo sapiens, UniProt P05187)
Sequence of SEAP-His (P05187 23-511 limits assumed): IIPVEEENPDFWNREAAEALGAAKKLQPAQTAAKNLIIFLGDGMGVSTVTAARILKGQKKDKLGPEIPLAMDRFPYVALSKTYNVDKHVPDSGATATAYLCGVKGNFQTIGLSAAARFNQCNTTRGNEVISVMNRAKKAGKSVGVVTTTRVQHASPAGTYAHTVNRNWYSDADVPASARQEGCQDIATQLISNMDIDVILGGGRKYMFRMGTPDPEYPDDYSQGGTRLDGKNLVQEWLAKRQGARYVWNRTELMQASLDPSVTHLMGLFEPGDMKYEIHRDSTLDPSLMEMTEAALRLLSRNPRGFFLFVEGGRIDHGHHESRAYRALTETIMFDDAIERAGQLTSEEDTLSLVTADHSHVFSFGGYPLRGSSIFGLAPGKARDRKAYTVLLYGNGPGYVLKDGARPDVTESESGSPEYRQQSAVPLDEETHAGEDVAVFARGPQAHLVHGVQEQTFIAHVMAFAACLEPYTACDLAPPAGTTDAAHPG
Method in brief: as §1

[4] = target: T3, human EphB6 (Homo sapiens, UniProt O15197)
T3 construct: a protein of the extracellular region of each human Eph receptor fused with the SEAP protein and the His tag; made in house; host or cells: Expi293F cells
T3 sequence (O15197 32-594 limits assumed): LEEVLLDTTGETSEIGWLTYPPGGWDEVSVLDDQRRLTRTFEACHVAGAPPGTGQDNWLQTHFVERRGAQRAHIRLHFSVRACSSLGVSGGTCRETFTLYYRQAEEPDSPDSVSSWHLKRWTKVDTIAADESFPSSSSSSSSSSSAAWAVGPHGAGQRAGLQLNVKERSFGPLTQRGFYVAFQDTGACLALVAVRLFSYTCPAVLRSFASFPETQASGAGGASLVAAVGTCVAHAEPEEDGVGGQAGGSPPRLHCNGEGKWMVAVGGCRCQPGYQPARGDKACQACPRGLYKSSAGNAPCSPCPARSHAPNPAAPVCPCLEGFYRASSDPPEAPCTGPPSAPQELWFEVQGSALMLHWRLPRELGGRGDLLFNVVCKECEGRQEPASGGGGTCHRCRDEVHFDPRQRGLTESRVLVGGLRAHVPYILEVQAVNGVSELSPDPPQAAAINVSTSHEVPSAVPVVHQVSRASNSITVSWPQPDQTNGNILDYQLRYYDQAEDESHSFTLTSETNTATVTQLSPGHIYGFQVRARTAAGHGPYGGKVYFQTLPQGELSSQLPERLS
Method in brief: as §1

hEphA6-SEAP-: absorbance at 450 nm, percentage with respect to hEphA4-SEAP-His as 100% [1]: 7.5%
hEphA2-SEAP-: absorbance at 450 nm, percentage with respect to hEphA4-SEAP-His as 100% [2]: 5.8%
SEAP-His: absorbance at 450 nm, percentage with respect to hEphA4-SEAP-His as 100% [3]: 6.1%
hEphB6-SEAP-: absorbance at 450 nm, percentage with respect to hEphA4-SEAP-His as 100% [4]: 6.1%
B1: 88 (antibody, V domains shown)
VL: DIQMTQSPSSLSASVGDRVTITCRASENIYRNLAWYQQKPGKAPQLLLYAATNLADGVPSRFSGSGSGTDYTLTISSLQPEDFATYYCQHFWGTPWTFGQGTKVEIK
VH: QVQLVQSGSELKKPGASVKVSCKASGYTFTDYSMHWVRQAPGQGLKWMGWINTETGEPTYAQGFTGRFVFSLDTSVSTAYLQISSLKAEDTAVYYCARIPLYYYGSRYWYFDVWGQGTTVTVSS
modifications: constant regions without entry; synthetic humanized antibody light chain variable region sequence; synthetic humanized antibody heavy chain variable region sequence

hEphA6-SEAP-: absorbance at 450 nm, percentage with respect to hEphA4-SEAP-His as 100% [1]: 9.8%
hEphA2-SEAP-: absorbance at 450 nm, percentage with respect to hEphA4-SEAP-His as 100% [2]: 5.3%
SEAP-His: absorbance at 450 nm, percentage with respect to hEphA4-SEAP-His as 100% [3]: 5.5%
hEphB6-SEAP-: absorbance at 450 nm, percentage with respect to hEphA4-SEAP-His as 100% [4]: 5.5%
B2: 96 (antibody, V domains shown)
VL: EIVMTQSPATLSVSPGERATLSCRASENIYRNLAWYQQKPGQSPRLLIYAATNLADGIPARFSGSGSGTEYTLTISSLQSEDFAVYYCQHFWGTPWTFGQGTKVEIK
VH: B1 VH with Q62D, G63D, T65K
modifications: constant regions without entry; synthetic humanized antibody light chain variable region sequence; synthetic humanized antibody heavy chain variable region sequence

hEphA6-SEAP-: absorbance at 450 nm, percentage with respect to hEphA4-SEAP-His as 100% [1]: 8.4%
hEphA2-SEAP-: absorbance at 450 nm, percentage with respect to hEphA4-SEAP-His as 100% [2]: 5.6%
SEAP-His: absorbance at 450 nm, percentage with respect to hEphA4-SEAP-His as 100% [3]: 5.8%
hEphB6-SEAP-: absorbance at 450 nm, percentage with respect to hEphA4-SEAP-His as 100% [4]: 4.8%
B3: 89 (antibody, V domains shown)
VL: B1 VL
VH: B1 VH with V2I
modifications: constant regions without entry; synthetic humanized antibody light chain variable region sequence; synthetic humanized antibody heavy chain variable region sequence

hEphA6-SEAP-: absorbance at 450 nm, percentage with respect to hEphA4-SEAP-His as 100% [1]: 8.8%
hEphA2-SEAP-: absorbance at 450 nm, percentage with respect to hEphA4-SEAP-His as 100% [2]: 6.1%
SEAP-His: absorbance at 450 nm, percentage with respect to hEphA4-SEAP-His as 100% [3]: 6.4%
hEphB6-SEAP-: absorbance at 450 nm, percentage with respect to hEphA4-SEAP-His as 100% [4]: 6.3%
B4: 91 (antibody, V domains shown)
VL: B1 VL
VH: B1 VH with Q62D, G63D, T65K
modifications: constant regions without entry; synthetic humanized antibody light chain variable region sequence; synthetic humanized antibody heavy chain variable region sequence

hEphA6-SEAP-: absorbance at 450 nm, percentage with respect to hEphA4-SEAP-His as 100% [1]: 7.4%
hEphA2-SEAP-: absorbance at 450 nm, percentage with respect to hEphA4-SEAP-His as 100% [2]: 5.7%
SEAP-His: absorbance at 450 nm, percentage with respect to hEphA4-SEAP-His as 100% [3]: 5.8%
hEphB6-SEAP-: absorbance at 450 nm, percentage with respect to hEphA4-SEAP-His as 100% [4]: 5.6%
B5: 73 (antibody, V domains shown)
VH: B1 VH with V2I, Q62D, G63D, T65K
VL: B2 VL
modifications: synthetic humanized antibody heavy chain variable region sequence; synthetic humanized antibody light chain variable region sequence

hEphA6-SEAP-: absorbance at 450 nm, percentage with respect to hEphA4-SEAP-His as 100% [1]: 8.6%
hEphA2-SEAP-: absorbance at 450 nm, percentage with respect to hEphA4-SEAP-His as 100% [2]: 6.4%
SEAP-His: absorbance at 450 nm, percentage with respect to hEphA4-SEAP-His as 100% [3]: 6.7%
hEphB6-SEAP-: absorbance at 450 nm, percentage with respect to hEphA4-SEAP-His as 100% [4]: 6.4%
B6: 94 (antibody, V domains shown)
VL: B2 VL
VH: B1 VH
modifications: constant regions without entry; synthetic humanized antibody light chain variable region sequence; synthetic humanized antibody heavy chain variable region sequence

hEphA6-SEAP-: absorbance at 450 nm, percentage with respect to hEphA4-SEAP-His as 100% [1]: 7.0%
hEphA2-SEAP-: absorbance at 450 nm, percentage with respect to hEphA4-SEAP-His as 100% [2]: 4.2%
SEAP-His: absorbance at 450 nm, percentage with respect to hEphA4-SEAP-His as 100% [3]: 4.4%
hEphB6-SEAP-: absorbance at 450 nm, percentage with respect to hEphA4-SEAP-His as 100% [4]: 4.7%
B7: 95 (antibody, V domains shown)
VL: B2 VL
VH: B1 VH with K46E, Q62D, G63D, T65K
modifications: constant regions without entry; synthetic humanized antibody light chain variable region sequence; synthetic humanized antibody heavy chain variable region sequence

hEphA6-SEAP-: absorbance at 450 nm, percentage with respect to hEphA4-SEAP-His as 100% [1]: 9.6%
hEphA2-SEAP-: absorbance at 450 nm, percentage with respect to hEphA4-SEAP-His as 100% [2]: 6.9%
SEAP-His: absorbance at 450 nm, percentage with respect to hEphA4-SEAP-His as 100% [3]: 6.5%
hEphB6-SEAP-: absorbance at 450 nm, percentage with respect to hEphA4-SEAP-His as 100% [4]: 6.5%
B8: 92 (antibody, V domains shown)
VL: B1 VL
VH: B1 VH with V2I, Q62D, G63D, T65K
modifications: constant regions without entry; synthetic humanized antibody light chain variable region sequence; synthetic humanized antibody heavy chain variable region sequence

hEphA6-SEAP-: absorbance at 450 nm, percentage with respect to hEphA4-SEAP-His as 100% [1]: 7.6%
hEphA2-SEAP-: absorbance at 450 nm, percentage with respect to hEphA4-SEAP-His as 100% [2]: 5.2%
SEAP-His: absorbance at 450 nm, percentage with respect to hEphA4-SEAP-His as 100% [3]: 5.2%
hEphB6-SEAP-: absorbance at 450 nm, percentage with respect to hEphA4-SEAP-His as 100% [4]: 5.2%
B9: 90 (antibody, V domains shown)
VL: B1 VL
VH: B1 VH with K46E, Q62D, G63D, T65K
modifications: constant regions without entry; synthetic humanized antibody light chain variable region sequence; synthetic humanized antibody heavy chain variable region sequence

hEphA6-SEAP-: absorbance at 450 nm, percentage with respect to hEphA4-SEAP-His as 100% [1]: 7.1%
hEphA2-SEAP-: absorbance at 450 nm, percentage with respect to hEphA4-SEAP-His as 100% [2]: 5.0%
SEAP-His: absorbance at 450 nm, percentage with respect to hEphA4-SEAP-His as 100% [3]: 5.0%
hEphB6-SEAP-: absorbance at 450 nm, percentage with respect to hEphA4-SEAP-His as 100% [4]: 4.9%
B10: 93 (antibody, V domains shown)
VL: B2 VL
VH: B1 VH with K46E
modifications: constant regions without entry; synthetic humanized antibody light chain variable region sequence; synthetic humanized antibody heavy chain variable region sequence

hEphA6-SEAP-: absorbance at 450 nm, percentage with respect to hEphA4-SEAP-His as 100% [1]: 9.2%
hEphA2-SEAP-: absorbance at 450 nm, percentage with respect to hEphA4-SEAP-His as 100% [2]: 5.7%
SEAP-His: absorbance at 450 nm, percentage with respect to hEphA4-SEAP-His as 100% [3]: 5.6%
hEphB6-SEAP-: absorbance at 450 nm, percentage with respect to hEphA4-SEAP-His as 100% [4]: 5.3%
B11: 71 (antibody, V domains shown)
VH: B1 VH with V2I
VL: B2 VL
modifications: synthetic humanized antibody heavy chain variable region sequence; synthetic humanized antibody light chain variable region sequence
